Patent US20190167721A1 (FOURTH MILITARY MEDICAL UNIVERSITY XI AN, published 2019)

B1: FM4 (scFv, V domains shown)
VH: EVKLVESGGGLVQPGGSLRLSCSISGFTFTDYYMNWVRQSPGKALEWLGFIRNKVNGDTTEYSASVKGRFTISRDISQSILYLQMNTLRTEDSATYYCARDKGIAYYFDYWGQGTTLTVSS
VL: QIVLSQSPAILFASPGEKVTMTCRASSSVSYIHWYQQKPGSSPKPWIHGTSNLASGVPARFSGSGSGTSYSLTISRMEAEDAATYYCQQWSSNLSTFGGGTKLEIK
notes: also called antibody FM4; FM4 single-chain antibody
B2: FM5 (scFv, V domains shown)
VH: QVQLKESGPGLVAPSQNLSITCTVSGFSLTSYAINWVRQPPGKGLEWLGIIWTGGGTNYNSALKSRLSISKDNSKSQVFLKMNSLQTDDTARYYCASGVYYFDYWGLGTTLTVSS
VL: DIVMTQSHKFMSTSVGDRVSITCKASQDVTTAVAWYQQKPGQSPKVLIFWASTRHTGVPDRFTGSGSGTDYTLTISSVQAEDLALYYCQQYYRTPRTFGGGTKLEIK
notes: also called antibody FM5; FM5 single-chain antibody
B3: FM2 (scFv, V domains shown)
VH: DVKLVESGGGLVKPGGSLKLSCAASGFTFSRYTMSWVRQTPEKRLEWVATISNSGSYTYYRDSVKGRFTISRDNAKNTLYLQMSSLKSEDTAMYYCTRGSPWGQGTLVTVSA
VL: DIQMTQSPDSLSASVGETVTITCGASENIYGALNWYQRKQGKSPQLLIYGATKLADGMSSRFSGSGSNRQYSLKISSLHPDDVATYYCQNVLSKPYAFGGGTKLEIK
notes: also called antibody FM2; FM2 single-chain antibody

Tests used:
[1] = target: T1, glycosylated CEA (human, UniProt P06731 35-685, glycosylated (sites and glycans not stated)); assay: ratio of EC50 values from flow cytometry on cells
T1 construct: whole, on cells; also called glycosylated CEA antigen; MG7
T1 sequence (looked up): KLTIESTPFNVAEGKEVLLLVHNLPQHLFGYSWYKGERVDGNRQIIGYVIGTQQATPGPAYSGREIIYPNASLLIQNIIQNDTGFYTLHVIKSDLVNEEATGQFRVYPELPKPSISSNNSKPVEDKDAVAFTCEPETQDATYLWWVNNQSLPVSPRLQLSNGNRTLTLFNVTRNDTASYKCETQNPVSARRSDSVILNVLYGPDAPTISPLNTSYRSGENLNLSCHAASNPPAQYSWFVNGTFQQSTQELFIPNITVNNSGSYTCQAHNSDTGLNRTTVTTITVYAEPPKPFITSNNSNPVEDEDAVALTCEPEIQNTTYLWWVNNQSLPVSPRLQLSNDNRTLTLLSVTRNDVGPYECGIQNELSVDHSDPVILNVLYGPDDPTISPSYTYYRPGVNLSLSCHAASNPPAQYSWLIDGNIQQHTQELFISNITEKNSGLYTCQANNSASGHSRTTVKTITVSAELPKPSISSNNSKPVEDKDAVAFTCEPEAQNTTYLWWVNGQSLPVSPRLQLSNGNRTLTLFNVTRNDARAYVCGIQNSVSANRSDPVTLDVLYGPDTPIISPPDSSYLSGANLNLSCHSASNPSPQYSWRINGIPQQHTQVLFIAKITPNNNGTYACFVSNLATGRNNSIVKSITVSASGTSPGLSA

[2] = target: T1, glycosylated CEA; assay: flow cytometry on CRYPT cells, goat anti-mouse IgG-APC, logistic fit of MFI
Protocol: (§1) The antibodies FM2, FM4, FM5, and FM6 were diluted with PBS buffer containing 1% BSA, and incubated with SW620-CEA or CRYPT cells (final concentrations: 50 μg/ml, 5 μg/ml, 0.5 μg/ml, 0.05 μg/ml, 0.005 μg/ml, 0.0005 μg/ml) for 1 hour at room temperature; the cells were washed twice with PBS buffer containing 1% BSA, and then incubated with Goat Anti Mouse IgG-APC for 1 hour; the cells were washed twice with PBS buffer containing 1% BSA and resuspended in PBS buffer; the APC fluorescence values of the cells were read using BD Accuri C6 FACS.
(§2) Using the median fluorescence value (MFI) as the ordinate and the antibody concentration (μg/ml) as the abscissa, the S-curve was fitted using a logistic equation to calculate the antibody binding EC50, the results are shown in the following table: […]

[3] = target: T2, CEA overexpressed on SW620-CEA cells (CEACAM5, non-glycosylated state) (UniProt P06731 35-685); assay: flow cytometry on SW620-CEA cells, goat anti-mouse IgG-APC, logistic fit of MFI
T2 construct: whole, on cells; also called CEACAMS; CEA antigens with a lower degree of glycosylation
T2 sequence (looked up): T1 sequence (looked up)
Protocol: as §1, §2

Binder | selectivity (glycosylated CEA on CRYPT against non-glycosylated CEA on SW620-CEA) [1] | EC50 [2] | EC50 [3]
B1 | > 100 fold | 0.51 µg/mL | 
B2 |  | 0.04 µg/mL | 0.2 µg/mL
B3 |  | 0.02 µg/mL | 0.8 µg/mL
